Results published in patent US20200024322A1 (Eli Lilly, published 2020).

How the values were obtained:
human GIP receptor = target: T1, human GIP receptor (human, UniProt P48546 22-466); test: [125I]-GIP competition SPA, hGIPR membranes
T1 construct: whole, on cells; also called hGIPR; hGIP-R
T1 sequence (looked up): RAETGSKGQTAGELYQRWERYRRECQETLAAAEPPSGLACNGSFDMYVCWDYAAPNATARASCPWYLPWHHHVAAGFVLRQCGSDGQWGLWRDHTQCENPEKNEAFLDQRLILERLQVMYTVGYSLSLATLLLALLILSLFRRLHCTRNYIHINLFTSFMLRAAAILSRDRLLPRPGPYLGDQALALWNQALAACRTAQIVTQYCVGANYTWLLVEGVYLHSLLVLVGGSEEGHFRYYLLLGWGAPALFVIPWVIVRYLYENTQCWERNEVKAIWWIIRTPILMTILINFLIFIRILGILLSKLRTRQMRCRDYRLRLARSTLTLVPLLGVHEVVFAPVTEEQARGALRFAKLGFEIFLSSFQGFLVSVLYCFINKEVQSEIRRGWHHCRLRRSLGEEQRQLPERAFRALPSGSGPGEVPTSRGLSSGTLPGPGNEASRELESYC

human GLP-1 receptor = target: T2, human GLP-1 receptor (human, UniProt P43220 24-463); test: [125I]-GLP-1 competition SPA, hGLP-1R membranes
T2 construct: whole, on cells; also called hGLP-1R; hGLP1R
Procedure, shortened: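 Competition binding in 25 mM HEPES pH 7.4, 2.5 mM CaCl₂, 1 mM MgCl₂, 0.1% bacitracin, 0.003% TWEEN-20, EDTA-free protease inhibitors. IC₅₀ from four-parameter nonlinear fit; Kᵢ given as geometric mean ± SEM, n = independent replicates on different days.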

human glucagon receptor = target: T3, human glucagon receptor (human, UniProt P47871 26-477); test: [125I]-Gcg competition SPA, hGcgR membranes
T3 construct: whole, on cells; also called hGcgR; GcgR
T3 sequence (P47871 26-477): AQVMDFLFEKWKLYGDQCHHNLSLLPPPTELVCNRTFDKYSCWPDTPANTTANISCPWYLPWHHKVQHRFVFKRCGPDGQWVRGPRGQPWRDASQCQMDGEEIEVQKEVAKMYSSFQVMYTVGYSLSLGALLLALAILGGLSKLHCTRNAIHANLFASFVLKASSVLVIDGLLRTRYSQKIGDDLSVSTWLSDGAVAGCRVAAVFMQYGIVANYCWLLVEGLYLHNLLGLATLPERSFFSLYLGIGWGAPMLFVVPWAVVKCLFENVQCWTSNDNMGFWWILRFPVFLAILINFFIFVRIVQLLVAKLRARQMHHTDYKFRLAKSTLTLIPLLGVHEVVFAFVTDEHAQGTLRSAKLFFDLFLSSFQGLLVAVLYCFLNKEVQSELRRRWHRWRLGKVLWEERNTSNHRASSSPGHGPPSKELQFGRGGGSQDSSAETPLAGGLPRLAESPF

B1: Example 221 (peptide)
peptide: YXEGTXTSDYSIXLDEKAQXEFIXYLIEGGPSSGAPPPS
modifications: Aib2; αMeF(2F)6; αMeL13; K17((2-[2-(2-Amino-ethoxy)-ethoxy]-acetyl)2-(γ-Glu)-CO-(CH2)16-CO2H); Aib20; D-Glu24; C-terminal NH2
Ki (human GIP receptor): 0.0414 nM | Ki (human GLP-1 receptor): 1.77 nM | Ki (human glucagon receptor): 154 nM

B2: Example 226 (peptide)
peptide: YXEGTXTSDYSILLDEKAQXEFIXYLIEGGPSSGAPPPS
modifications: Aib2; αMeF(2F)6; K17((2-[2-(2-Amino-ethoxy)-ethoxy]-acetyl)2-(γ-Glu)-CO-(CH2)18-CO2H); Aib20; D-Glu24; C-terminal NH2
Ki (human GIP receptor): 0.0254 nM | Ki (human GLP-1 receptor): 4.1 nM | Ki (human glucagon receptor): 200 nM

B3: Example 238 (peptide)
peptide: YXEGTXTSDLSIXLDXKAQXEFIXXLIEGGPSSGAPPPS
modifications: Aib2; αMeF(2F)6; αMeL13; Orn16; K17((2-[2-(2-Amino-ethoxy)-ethoxy]-acetyl)2-(γ-Glu)-CO-(CH2)16-CO2H); Aib20; D-Glu24; αMeY25; C-terminal NH2
Ki (human GIP receptor): 0.0403 nM | Ki (human GLP-1 receptor): 0.548 nM | Ki (human glucagon receptor): 230 nM

B4: Example 250 (peptide)
peptide: YXEGTXTSDYSIXLDXKAQXEFIXYLIEGGPSSGAPPPS
modifications: Aib2; αMeF(2F)6; Aib13; Orn16; K17((2-[2-(2-Amino-ethoxy)-ethoxy]-acetyl)2-(γ-Glu)-CO-(CH2)18-CO2H); Aib20; D-Glu24; C-terminal NH2
Ki (human GIP receptor): 0.0171 nM | Ki (human GLP-1 receptor): 1.72 nM | Ki (human glucagon receptor): 198 nM

B5: Example 224 (peptide)
peptide: YXEGTXTSDYSIXLDEKAQXEFIXYLIEGGPSSGAPPPS
modifications: Aib2; αMeF(2F)6; Aib13; K17((2-[2-(2-Amino-ethoxy)-ethoxy]-acetyl)2-(γ-Glu)-CO-(CH2)18-CO2H); Aib20; D-Glu24; C-terminal NH2
Ki (human GIP receptor): 0.0482 nM | Ki (human GLP-1 receptor): 6.86 nM | Ki (human glucagon receptor): 627 nM

B6: Example 223 (peptide)
peptide: YXEGTXTSDYSIXLDEKAQXEFIEXLIEGGPSSGAPPPS
modifications: Aib2; αMeF(2F)6; αMeL13; K17((2-[2-(2-Amino-ethoxy)-ethoxy]-acetyl)2-(γ-Glu)-CO-(CH2)18-CO2H); Aib20; αMeY25; C-terminal NH2
Ki (human GIP receptor): 0.0921 nM | Ki (human GLP-1 receptor): 5.62 nM | Ki (human glucagon receptor): 46.5 nM

B7: Example 222 (peptide)
peptide: YXEGTXTSDYSIXLDEKAQXEFIXXLIEGGPSSGAPPPS
modifications: Aib2; αMeF(2F)6; αMeL13; K17((2-[2-(2-Amino-ethoxy)-ethoxy]-acetyl)2-(γ-Glu)-CO-(CH2)18-CO2H); Aib20; D-Glu24; αMeY25; C-terminal NH2
Ki (human GIP receptor): 0.0495 nM | Ki (human GLP-1 receptor): 3.59 nM | Ki (human glucagon receptor): 71.3 nM

B8: Example 227 (peptide)
peptide: YXEGTXTSDYSIXLDEKAQXEFIXYLIEGGPSSGAPPPS
modifications: Aib2; αMeF6; αMeL13; K17((2-[2-(2-Amino-ethoxy)-ethoxy]-acetyl)2-(γ-Glu)-CO-(CH2)18-CO2H); Aib20; D-Glu24; C-terminal NH2
Ki (human GIP receptor): 0.0146 nM | Ki (human GLP-1 receptor): 2.01 nM | Ki (human glucagon receptor): 113 nM

B9: Example 251 (peptide)
peptide: YXEGTXTSDXSIXLDXKAQXAFIXXLIEGGPSSGAPPPS
modifications: Aib2; αMeF(2F)6; 4Pal10; αMeL13; Orn16; K17((2-[2-(2-Amino-ethoxy)-ethoxy]-acetyl)2-(εK)-CO-(CH2)18-CO2H); Aib20; D-Glu24; αMeY25; C-terminal NH2
Ki (human GIP receptor): 0.0249 nM | Ki (human GLP-1 receptor): 1.09 nM | Ki (human glucagon receptor): 21.2 nM

B10: Example 240 (peptide)
peptide: YXEGTXTSDXSIXLDXKAQXAFIXXLIEGGPSSGAPPPS
modifications: Aib2; αMeF(2F)6; 4Pal10; αMeL13; Orn16; K17((2-[2-(2-Amino-ethoxy)-ethoxy]-acetyl)2-(γ-Glu)-CO-(CH2)16-CO2H); Aib20; D-Glu24; αMeY25; C-terminal NH2
Ki (human GIP receptor): 0.0284 nM | Ki (human GLP-1 receptor): 0.552 nM | Ki (human glucagon receptor): 204 nM

B11: Example 225 (peptide)
peptide: YXEGTXTSDYSIXLDEKAQXEFIXYLIEGGPSSGAPPPS
modifications: Aib2; αMeF6; Aib13; K17((2-[2-(2-Amino-ethoxy)-ethoxy]-acetyl)2-(γ-Glu)-CO-(CH2)18-CO2H); Aib20; D-Glu24; C-terminal NH2
Ki (human GIP receptor): 0.0622 nM | Ki (human GLP-1 receptor): 8.79 nM | Ki (human glucagon receptor): 714 nM

B12: Example 244 (peptide)
peptide: YXEGTXTSDLSIXLDXKAQXAFIXXLIEGGPSSGAPPPS
modifications: Aib2; αMeF(2F)6; αMeL13; Orn16; K17((2-[2-(2-Amino-ethoxy)-ethoxy]-acetyl)2-(γ-Glu)-CO-(CH2)16-CO2H); Aib20; D-Glu24; αMeY25; C-terminal NH2
Ki (human GIP receptor): 0.0308 nM | Ki (human GLP-1 receptor): 0.82 nM | Ki (human glucagon receptor): 87.8 nM

B13: Example 243 (peptide)
peptide: YXEGTXTSDLSIXLDXKAQXTFIXXLIEGGPSSGAPPPS
modifications: Aib2; αMeF(2F)6; αMeL13; Orn16; K17((2-[2-(2-Amino-ethoxy)-ethoxy]-acetyl)2-(γ-Glu)-CO-(CH2)16-CO2H); Aib20; D-Glu24; αMeY25; C-terminal NH2
Ki (human GIP receptor): 0.0325 nM | Ki (human GLP-1 receptor): 0.67 nM | Ki (human glucagon receptor): 145 nM

B14: Example 239 (peptide)
peptide: YXEGTXTSDXSIXLDXKAQXTFIXXLIEGGPSSGAPPPS
modifications: Aib2; αMeF(2F)6; 4Pal10; αMeL13; Orn16; K17((2-[2-(2-Amino-ethoxy)-ethoxy]-acetyl)2-(γ-Glu)-CO-(CH2)16-CO2H); Aib20; D-Glu24; αMeY25; C-terminal NH2
Ki (human GIP receptor): 0.101 nM | Ki (human GLP-1 receptor): 2.71 nM | Ki (human glucagon receptor): 596 nM

B15: Example 236 (peptide)
peptide: YXEGTXTSDYSIXLDXKAQXEFIXXLIEGGPSSGAPPPS
modifications: Aib2; αMeF(2F)6; αMeL13; Orn16; K17((2-[2-(2-Amino-ethoxy)-ethoxy]-acetyl)2-(γ-Glu)-CO-(CH2)16-CO2H); Aib20; D-Glu24; αMeY25; C-terminal NH2
Ki (human GIP receptor): 0.0425 nM | Ki (human GLP-1 receptor): 1.05 nM | Ki (human glucagon receptor): 200 nM

B16: Example 252 (peptide)
peptide: YXEGTXTSDXSIXLDXKAQXAFIXXLIAGGPSSGAPPPS
modifications: Aib2; αMeF(2F)6; 4Pal10; αMeL13; Orn16; K17((2-[2-(2-Amino-ethoxy)-ethoxy]-acetyl)2-(εK)-CO-(CH2)18-CO2H); Aib20; D-Glu24; αMeY25; C-terminal NH2
Ki (human GIP receptor): 0.00971 nM | Ki (human GLP-1 receptor): 0.383 nM | Ki (human glucagon receptor): 26 nM

B17: Example 242 (peptide)
peptide: YXEGTXTSDVSIXLDXKAQXAFIXXLIEGGPSSGAPPPS
modifications: Aib2; αMeF(2F)6; αMeL13; Orn16; K17((2-[2-(2-Amino-ethoxy)-ethoxy]-acetyl)2-(γ-Glu)-CO-(CH2)16-CO2H); Aib20; D-Glu24; αMeY25; C-terminal NH2
Ki (human GIP receptor): 0.0604 nM | Ki (human GLP-1 receptor): 0.853 nM | Ki (human glucagon receptor): 95.9 nM

B18: Example 241 (peptide)
peptide: YXEGTXTSDVSIXLDXKAQXTFIXXLIEGGPSSGAPPPS
modifications: Aib2; αMeF(2F)6; αMeL13; Orn16; K17((2-[2-(2-Amino-ethoxy)-ethoxy]-acetyl)2-(γ-Glu)-CO-(CH2)16-CO2H); Aib20; D-Glu24; αMeY25; C-terminal NH2
Ki (human GIP receptor): 0.042 nM | Ki (human GLP-1 receptor): 0.799 nM | Ki (human glucagon receptor): 167 nM

B19: Example 254 (peptide)
peptide: YXEGTFTSDYSILLDKKAQQAFIEYLIEGGPSSGAPPPS
modifications: Aib2; K17((2-[2-(2-Amino-ethoxy)-ethoxy]-acetyl)2-(γ-Glu)-CO-(CH2)18-CO2H); C-terminal NH2
Ki (human GIP receptor): 0.108 nM | Ki (human GLP-1 receptor): 2.58 nM | Ki (human glucagon receptor): 148 nM

B20: Example 255 (peptide)
peptide: YXEGTFTSDYSILLDKKAQHAFIEYLIEGGPSSGAPPPS
modifications: Aib2; K17((2-[2-(2-Amino-ethoxy)-ethoxy]-acetyl)2-(γ-Glu)-CO-(CH2)18-CO2H); C-terminal NH2
Ki (human GIP receptor): 0.0772 nM | Ki (human GLP-1 receptor): 2.58 nM | Ki (human glucagon receptor): 257 nM

B21: Example 219 (peptide)
peptide: YXEGTXTSDYSIXLDEKAQXEFIXYLIEGGPSSG
modifications: Aib2; αMeF(2F)6; αMeL13; K17((2-[2-(2-Amino-ethoxy)-ethoxy]-acetyl)2-(γ-Glu)-CO-(CH2)16-CO2H); Aib20; D-Glu24; C-terminal NH2
Ki (human GIP receptor): 0.0689 nM | Ki (human GLP-1 receptor): 2.01 nM | Ki (human glucagon receptor): 373 nM

B22: Example 264 (peptide)
peptide: YXEGTXTSDXSIXLDXKAQXEFIXXLIEGGPSSG
modifications: Aib2; αMeF(2F)6; 4Pal10; αMeL13; Orn16; K17((2-[2-(2-Amino-ethoxy)-ethoxy]-acetyl)2-(γ-Glu)-CO-(CH2)16-CO2H); Aib20; D-Glu24; αMeY25; C-terminal NH2
Ki (human GIP receptor): 0.015 nM | Ki (human GLP-1 receptor): 0.412 nM | Ki (human glucagon receptor): 388 nM

B23: Example 228 (peptide)
peptide: YXEGTXTSDYSIXLDKKAQXEFIXYLIEGGPSSG
modifications: Aib2; αMeF6; αMeL13; K17((2-[2-(2-Amino-ethoxy)-ethoxy]-acetyl)2-(γ-Glu)-CO-(CH2)18-CO2H); Aib20; D-Glu24; C-terminal NH2
Ki (human GIP receptor): 0.028 nM | Ki (human GLP-1 receptor): 2.43 nM | Ki (human glucagon receptor): 182 nM

B24: Example 220 (peptide)
peptide: YXEGTXTSDYSIXLDEKAQXEFIXYLIEGG
modifications: Aib2; αMeF(2F)6; αMeL13; K17((2-[2-(2-Amino-ethoxy)-ethoxy]-acetyl)2-(γ-Glu)-CO-(CH2)16-CO2H); Aib20; D-Glu24; C-terminal NH2
Ki (human GIP receptor): 0.0919 nM | Ki (human GLP-1 receptor): 2.71 nM | Ki (human glucagon receptor): 377 nM

B25: Example 265 (peptide)
peptide: YXEGTXTSDXSIXLDXKAQXEFIXXLIEGG
modifications: Aib2; αMeF(2F)6; 4Pal10; αMeL13; Orn16; K17((2-[2-(2-Amino-ethoxy)-ethoxy]-acetyl)2-(γ-Glu)-CO-(CH2)16-CO2H); Aib20; D-Glu24; αMeY25; C-terminal NH2
Ki (human GIP receptor): 0.0224 nM | Ki (human GLP-1 receptor): 0.537 nM | Ki (human glucagon receptor): 567 nM
